Assay results reported in patent publication US12534534 (F STAR BETA, dated 2026).

T1: cCD137-mFc-Avi (cynomolgus, Homodimer through the mouse Fc (one chain given). In the biotinylated version one biotin sits on the Avi-tag lysine of each monomer.)
T1 construct: dimer; biotinylated version used on streptavidin plates; also called cyno CD137-mFc-Avi; cyno CD137-mFc
T1 chain: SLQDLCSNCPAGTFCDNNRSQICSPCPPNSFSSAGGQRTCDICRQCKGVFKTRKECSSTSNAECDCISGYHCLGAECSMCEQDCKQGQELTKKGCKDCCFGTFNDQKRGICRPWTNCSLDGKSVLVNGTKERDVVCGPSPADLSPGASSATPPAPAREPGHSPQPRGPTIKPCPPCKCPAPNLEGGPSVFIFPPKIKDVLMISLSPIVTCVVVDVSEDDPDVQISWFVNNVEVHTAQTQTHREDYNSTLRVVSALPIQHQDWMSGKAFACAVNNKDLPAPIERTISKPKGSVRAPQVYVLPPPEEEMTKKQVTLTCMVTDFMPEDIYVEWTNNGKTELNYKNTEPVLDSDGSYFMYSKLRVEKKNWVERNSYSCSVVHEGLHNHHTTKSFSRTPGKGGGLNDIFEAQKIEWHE

T2: TNFRSF1A-Fc (human, UniProt P19438 30-211, limits assumed)
T2 construct: bought; also called TNFRSF1A (R&D Systems, 372-RI-050/CF); not shown: Fc part of the bought fusion
T2 sequence (looked up): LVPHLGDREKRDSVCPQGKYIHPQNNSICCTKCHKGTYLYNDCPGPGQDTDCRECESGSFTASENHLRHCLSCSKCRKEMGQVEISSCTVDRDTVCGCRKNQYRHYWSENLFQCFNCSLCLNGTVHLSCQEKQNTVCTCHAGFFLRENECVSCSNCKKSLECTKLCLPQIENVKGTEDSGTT

T3: TNFRSF1B-Fc (human, UniProt P20333 23-257)
T3 construct: bought; also called TNFRSF1B (R&D Systems, 726-R2-050); not shown: Fc part of the bought fusion
T3 sequence (looked up): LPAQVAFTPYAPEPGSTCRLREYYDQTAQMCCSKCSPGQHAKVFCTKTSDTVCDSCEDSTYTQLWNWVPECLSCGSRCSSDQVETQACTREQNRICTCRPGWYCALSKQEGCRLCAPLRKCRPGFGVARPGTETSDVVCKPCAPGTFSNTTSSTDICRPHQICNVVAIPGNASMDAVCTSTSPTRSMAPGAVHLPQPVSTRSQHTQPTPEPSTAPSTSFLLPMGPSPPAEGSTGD

T4: NGFR-Fc (human, UniProt P08138 29-250)
T4 construct: bought; also called NGFR (R&D Systems, 367-NR-050/CF); not shown: Fc part of the bought fusion
T4 sequence (looked up): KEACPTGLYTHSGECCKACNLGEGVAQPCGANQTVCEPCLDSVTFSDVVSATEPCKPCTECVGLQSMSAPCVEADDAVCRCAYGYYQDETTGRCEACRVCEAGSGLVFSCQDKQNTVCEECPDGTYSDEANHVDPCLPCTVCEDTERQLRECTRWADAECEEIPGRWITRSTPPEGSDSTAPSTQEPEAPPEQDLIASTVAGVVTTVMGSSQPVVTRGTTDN

T5: DR6-Fc (human, UniProt O75509 42-349, limits assumed)
T5 construct: bought; also called human DR6 (R&D Systems, 144-DR-100); not shown: Fc part of the bought fusion
T5 sequence (looked up): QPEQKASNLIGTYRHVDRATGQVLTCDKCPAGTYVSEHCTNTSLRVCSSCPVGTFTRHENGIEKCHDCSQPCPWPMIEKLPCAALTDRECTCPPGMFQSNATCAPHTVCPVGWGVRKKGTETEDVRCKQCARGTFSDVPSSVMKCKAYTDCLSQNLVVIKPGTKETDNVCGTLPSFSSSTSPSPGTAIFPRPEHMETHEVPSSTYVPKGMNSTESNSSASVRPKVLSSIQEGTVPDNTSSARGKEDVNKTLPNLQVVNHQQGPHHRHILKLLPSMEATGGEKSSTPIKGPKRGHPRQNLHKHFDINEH

T6: GITR-hFc-Avi (human, UniProt Q9Y5U5 26-161)
T6 construct: in-house produced; not shown: hFc and Avi part
T6 sequence: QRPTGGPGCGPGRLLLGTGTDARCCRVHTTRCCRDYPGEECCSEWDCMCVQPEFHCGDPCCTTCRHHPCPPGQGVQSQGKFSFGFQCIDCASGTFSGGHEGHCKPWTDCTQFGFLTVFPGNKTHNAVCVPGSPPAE


Key:
[1] = target: T7, human CD137 on DO11.10-hCD137 cells (human, UniProt Q07011 24-255); experiment: cell-based or functional assay
T7 sequence (Q07011 24-255): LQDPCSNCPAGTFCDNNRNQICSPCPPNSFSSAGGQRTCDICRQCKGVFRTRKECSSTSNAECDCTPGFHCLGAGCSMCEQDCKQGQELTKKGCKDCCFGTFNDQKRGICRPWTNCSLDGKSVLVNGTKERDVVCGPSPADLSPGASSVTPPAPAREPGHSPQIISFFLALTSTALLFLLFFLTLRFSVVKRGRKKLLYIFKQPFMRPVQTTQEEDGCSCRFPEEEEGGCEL

[2] = target: T7, human CD137 on DO11.10-hCD137 cells; experiment: cell binding at 10 nM to DO11.10-hCD137 cells, against the parent FS20-22-49AA/FS30-5
cCD137-mFc-Avi = target: T1, cCD137-mFc-Avi; experiment: SPR (Biacore 3000), mAb captured by anti-human Fc, dimeric CD137-mFc as analyte, 1:1 model with mass transfer
Experimental: Briefly, 25 µg/ml anti-human IgG (Fc) antibody (GE Healthcare, Human Antibody Capture Kit, BR100839) was coated on flow cells 1, 2, 3 and 4 of a Biacore sensor chip CM5 (GE Healthcare, BR100012) for 3 minutes at 5 µl/min, achieving a final response of approximately 4300 RU. The mAb² clones, diluted in HBS-EP buffer (GE Healthcare, BR100188) at 0.5 µg/ml, were injected individually on flows cell 2, 3 and 4 at 30 µl/min to achieve a response of approximately 80 RU. […] Regeneration was achieved by injecting 3 M magnesium chloride (GE Healthcare, Human Antibody Capture Kit, BR100839) for 30 seconds at a rate of 30 µl/min. […] These slightly less stringent conditions were used to assess whether this molecule could bind to cyno CD137-mFc. Subtracted data (flow cell 2-flow cell 1, flow cell 3-flow cell 1, or flow cell 4-flow cell 1) were analysed using BIAevaluation 3.2 Software (GE Healthcare) to identify binding using the model 1:1 binding with mass transfer, with refractive index (RI) constant 0.

TNFRSF1A-Fc = target: T2, TNFRSF1A-Fc; experiment: SPR, antigen immobilised on CM5 chip
Experimental: (§1) Flow cell 1 was run as a blank immobilisation. The five FS20-22-49AA/FS30 mAb² were diluted to 1 μM and 1 nM in 1×HBS-EP buffer (GE Healthcare, product code BR100188), allowed to flow over the chip for 3 min and then allowed to dissociate for 4 minutes. A 30-second injection of 10 mM glycine pH 1.5 was used for regeneration. […] Binding levels were determined at the end of the association phase and compared.
(§2) Specificity was tested against the same five human TNFRSF members closely-related to CD137 (TNFRSF1A, TNFRSF1B, GITR, NGFR and CD40) plus an additional closely-related TNFRSF member, human DR6 (DR6-Fc; R&D Systems, 144-DR-100), using SPR as described in Example 3.1.

TNFRSF1B-Fc = target: T3, TNFRSF1B-Fc; experiment: SPR, antigen immobilised on CM5 chip
Experimental: as §1, §2

NGFR-Fc = target: T4, NGFR-Fc; experiment: SPR, antigen immobilised on CM5 chip
Experimental: as §1, §2

DR6-Fc = target: T5, DR6-Fc; experiment: SPR, antigen immobilised on CM5 chip
Experimental: as §1, §2

GITR-hFc-Avi = target: T6, GITR-hFc-Avi; experiment: SPR, antigen immobilised on CM5 chip
Experimental: as §1, §2

CD40-mFc = target: T8, CD40-mFc (human, UniProt P25942 21-193); experiment: SPR, antigen immobilised on CM5 chip
T8 construct: in-house produced; not shown: mFc part
T8 sequence (P25942 21-193): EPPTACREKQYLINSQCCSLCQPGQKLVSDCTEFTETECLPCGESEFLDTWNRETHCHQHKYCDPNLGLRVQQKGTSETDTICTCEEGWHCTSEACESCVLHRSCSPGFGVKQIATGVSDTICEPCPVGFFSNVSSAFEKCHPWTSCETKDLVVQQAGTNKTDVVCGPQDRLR
Experimental: as §1, §2

DO11.10-hCD137 T cell activation assay EC50 (nM), crosslinked [1] [nM]	fold change of cell binding at 10 nM against the parent clone [2] [fold]	Kd (cCD137-mFc-Avi) [nM]	binding result (TNFRSF1A-Fc)	binding result (TNFRSF1B-Fc)	binding result (NGFR-Fc)	binding result (DR6-Fc)	binding result (GITR-hFc-Avi)	binding result (CD40-mFc)	Binder
5.9	< 1.3								FS20-22-49AA/FS30-5 variant, Methionine (100H) to L (bispecific antibody, V domains shown) VH: EVQLLESGGGLVQPGGSLRLNCAASGFTFSSYAMSWVRQAPGKGLEWVSAISGSGGSTYYADSVKGRFTISRDNSKNTLYLQMNSLRAEDTAVYYCARSYDKYWGSSMYSGLDYWGQGTLVTVSS VL: EIVLTQSPGTLSLSPGERATLSCRASQSVSSSYLAWYQQKPGQAPRLLIYGASSRATGIPDRFSGSGSGTDFTLTISRLEPEDFAVYYCQQYYSYYPVTFGQGTKVEIKR
		0.34	no binding	no binding	no binding	no binding	no binding	no binding	G1/MOR7480.1 (antibody, human IgG1, lambda, human IgG1 without LALA; also called MOR7480.1 in IgG1 format) heavy: not shown light: SYELTQPPSVSVSPGQTASITCSGDNIGDQYAHWYQQKPGQSPVLVIYQDKNRPSGIPERFSGSNSGNTATLTISGTQAMDEADYYCATYTGFGSLAVFGGGTKLTVLGQPKAAPSVTLFPPSSEELQANKATLVCLISDFYPGAVTVAWKADSSPVKAGVETTTPSKQSNNKYAASSYLSLTPEQWKSHRSYSCQVTHEGSTVEKTVAPTECS
